According to PMC6859858:

How the values were obtained:
[1] = molecular target: T1, CPSF-160;WDR33;CPSF-30;Fip1 (human;human;human;human, UniProt Q10570;Q9C0J8;O95639;Q6UN15 1-1443;1-425;1-269;159-200, |||); experiment: competition fluorescence polarization
Target sequence in this assay (Q10570 whole entry, chain 1 of 4, one chain of several): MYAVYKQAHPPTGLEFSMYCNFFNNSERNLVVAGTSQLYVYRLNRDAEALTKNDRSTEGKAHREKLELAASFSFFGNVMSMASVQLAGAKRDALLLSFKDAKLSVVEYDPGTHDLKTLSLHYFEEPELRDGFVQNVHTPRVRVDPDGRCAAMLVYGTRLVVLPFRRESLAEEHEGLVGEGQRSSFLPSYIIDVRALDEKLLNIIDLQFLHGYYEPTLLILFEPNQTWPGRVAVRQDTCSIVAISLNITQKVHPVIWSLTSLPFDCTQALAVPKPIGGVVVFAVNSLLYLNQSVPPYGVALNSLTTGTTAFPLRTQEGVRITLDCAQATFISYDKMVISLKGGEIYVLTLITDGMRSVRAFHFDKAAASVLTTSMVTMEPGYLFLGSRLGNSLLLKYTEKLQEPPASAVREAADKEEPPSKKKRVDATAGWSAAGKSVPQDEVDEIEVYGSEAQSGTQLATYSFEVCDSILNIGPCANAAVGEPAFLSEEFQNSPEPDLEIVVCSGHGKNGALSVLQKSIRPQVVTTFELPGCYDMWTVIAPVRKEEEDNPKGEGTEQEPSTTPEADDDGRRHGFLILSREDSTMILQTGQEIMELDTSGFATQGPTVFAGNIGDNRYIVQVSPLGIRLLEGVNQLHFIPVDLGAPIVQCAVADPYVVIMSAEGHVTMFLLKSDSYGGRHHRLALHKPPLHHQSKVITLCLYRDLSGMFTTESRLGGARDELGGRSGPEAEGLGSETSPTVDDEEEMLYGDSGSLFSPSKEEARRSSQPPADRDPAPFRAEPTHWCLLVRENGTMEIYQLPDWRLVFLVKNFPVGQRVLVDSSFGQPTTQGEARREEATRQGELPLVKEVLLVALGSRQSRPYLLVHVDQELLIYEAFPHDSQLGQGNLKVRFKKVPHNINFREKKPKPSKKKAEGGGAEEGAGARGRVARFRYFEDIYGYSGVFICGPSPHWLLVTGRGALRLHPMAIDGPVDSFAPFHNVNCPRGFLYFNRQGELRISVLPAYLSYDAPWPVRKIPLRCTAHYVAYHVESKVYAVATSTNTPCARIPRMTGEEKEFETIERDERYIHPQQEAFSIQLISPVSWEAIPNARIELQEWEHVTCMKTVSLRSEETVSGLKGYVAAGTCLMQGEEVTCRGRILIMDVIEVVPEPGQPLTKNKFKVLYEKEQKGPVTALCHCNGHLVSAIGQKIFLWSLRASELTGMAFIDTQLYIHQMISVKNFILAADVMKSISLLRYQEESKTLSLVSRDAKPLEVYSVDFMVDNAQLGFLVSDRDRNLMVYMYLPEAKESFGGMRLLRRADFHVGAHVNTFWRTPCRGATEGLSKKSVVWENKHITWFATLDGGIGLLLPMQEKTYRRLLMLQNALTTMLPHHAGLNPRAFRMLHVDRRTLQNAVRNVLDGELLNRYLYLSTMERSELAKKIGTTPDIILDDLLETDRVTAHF
Target sequence in this assay (Q9C0J8 1-425, chain 2 of 4, one chain of several): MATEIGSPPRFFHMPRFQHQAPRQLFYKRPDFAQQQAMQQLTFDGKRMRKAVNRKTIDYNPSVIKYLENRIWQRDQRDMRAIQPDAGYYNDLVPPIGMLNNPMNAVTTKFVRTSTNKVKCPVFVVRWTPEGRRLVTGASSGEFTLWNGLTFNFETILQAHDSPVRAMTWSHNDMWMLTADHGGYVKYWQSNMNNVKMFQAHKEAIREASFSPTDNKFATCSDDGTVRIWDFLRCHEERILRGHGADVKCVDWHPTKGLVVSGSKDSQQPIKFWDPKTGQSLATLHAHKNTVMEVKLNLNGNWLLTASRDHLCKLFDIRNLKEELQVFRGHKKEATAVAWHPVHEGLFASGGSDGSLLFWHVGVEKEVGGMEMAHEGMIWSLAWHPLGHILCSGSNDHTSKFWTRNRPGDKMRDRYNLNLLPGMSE
Target sequence in this assay (O95639 whole entry, chain 3 of 4, one chain of several): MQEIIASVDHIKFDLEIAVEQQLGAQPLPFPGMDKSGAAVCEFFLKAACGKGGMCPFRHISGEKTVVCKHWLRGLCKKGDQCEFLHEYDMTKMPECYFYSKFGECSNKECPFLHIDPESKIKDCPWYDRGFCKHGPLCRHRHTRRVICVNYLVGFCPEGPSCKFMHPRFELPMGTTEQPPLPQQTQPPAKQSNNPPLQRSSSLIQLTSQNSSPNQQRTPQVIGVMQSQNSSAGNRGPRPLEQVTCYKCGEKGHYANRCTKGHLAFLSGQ

[2] = molecular target: T1, CPSF-160;WDR33;CPSF-30;Fip1; experiment: competition fluorescence polarization; remark: listed apart in the source
Target sequence in this assay (Q10570 whole entry, chain 1 of 3): as the sequence (Q10570 whole entry, chain 1 of 4, one chain of several) above
Target sequence in this assay (Q9C0J8 1-425, chain 2 of 3): as the sequence (Q9C0J8 1-425, chain 2 of 4, one chain of several) above
Target sequence in this assay (O95639 whole entry, chain 3 of 3): as the sequence (O95639 whole entry, chain 3 of 4, one chain of several) above

[3] = molecular target: T1, CPSF-160;WDR33;CPSF-30;Fip1; experiment: fluorescence polarization
Target sequence in this assay (Q10570 whole entry, chain 1 of 4, one chain of several): as the sequence (Q10570 whole entry, chain 1 of 4, one chain of several) above
Target sequence in this assay (Q9C0J8 1-425, chain 2 of 4, one chain of several): as the sequence (Q9C0J8 1-425, chain 2 of 4, one chain of several) above
Target sequence in this assay (O95639 whole entry, chain 3 of 4, one chain of several): as the sequence (O95639 whole entry, chain 3 of 4, one chain of several) above

Fip1 = molecular target: T2, Fip1 (human, UniProt Q6UN15 159-200); experiment: fluorescence polarization
T2 chain: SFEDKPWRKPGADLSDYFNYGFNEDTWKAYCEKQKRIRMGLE

CPSF-160;WDR33;CPSF-30 = CPSF-160;WDR33;CPSF-30 (human;human;human, UniProt Q10570;Q9C0J8;O95639 1-1443;1-425;1-269, ||); experiment: fluorescence polarization
[4] = molecular target: CPSF-160;WDR33;CPSF-30 F84A;Fip1 (human;human;human;human, UniProt Q10570;Q9C0J8;O95639;Q6UN15 1-1443;1-425;1-269;159-200, ||F84A|); experiment: fluorescence polarization
[5] = molecular target: CPSF-160;WDR33;CPSF-30 H70A;Fip1 (human;human;human;human, UniProt Q10570;Q9C0J8;O95639;Q6UN15 1-1443;1-425;1-269;159-200, ||H70A|); experiment: fluorescence polarization
[6] = molecular target: CPSF-160;WDR33;CPSF-30 F112A;Fip1 (human;human;human;human, UniProt Q10570;Q9C0J8;O95639;Q6UN15 1-1443;1-425;1-269;159-200, ||F112A|); experiment: fluorescence polarization
[7] = molecular target: CPSF-160;WDR33;CPSF-30 R73A;Fip1 (human;human;human;human, UniProt Q10570;Q9C0J8;O95639;Q6UN15 1-1443;1-425;1-269;159-200, ||R73A|); experiment: fluorescence polarization
[8] = molecular target: T1, CPSF-160;WDR33;CPSF-30;Fip1; experiment: fluorescence polarization; remark: listed apart in the source
Target sequence in this assay (Q10570 whole entry, chain 1 of 4, one chain of several): as the sequence (Q10570 whole entry, chain 1 of 4, one chain of several) above
Target sequence in this assay (Q9C0J8 1-425, chain 2 of 4, one chain of several): as the sequence (Q9C0J8 1-425, chain 2 of 4, one chain of several) above
Target sequence in this assay (O95639 whole entry, chain 3 of 4, one chain of several): as the sequence (O95639 whole entry, chain 3 of 4, one chain of several) above

[9] = molecular target: T1, CPSF-160;WDR33;CPSF-30;Fip1; experiment: fluorescence polarization; remark: listed apart in the source
Target sequence in this assay (Q10570 whole entry, chain 1 of 3): as the sequence (Q10570 whole entry, chain 1 of 4, one chain of several) above
Target sequence in this assay (Q9C0J8 1-425, chain 2 of 3): as the sequence (Q9C0J8 1-425, chain 2 of 4, one chain of several) above
Target sequence in this assay (O95639 whole entry, chain 3 of 3): as the sequence (O95639 whole entry, chain 3 of 4, one chain of several) above

B1: 8-mer AAUAAA, unlabeled (ssRNA)
RNA: CAAUAAAC
Question: With B1 as the binder, how does the Kd [1] read?
Answer: 57 ± 18 nM

B2: 7-mer AAUAAAC, unlabeled (ssRNA)
RNA: AAUAAAC
Question: For B2, which binding signal [2] is on record?
Answer: 35 fold higher Kd than 11-mer

B3: 11-mer AAUAAA PAS, FAM (ssRNA)
RNA: CAAUAAACAAC
Question: Which Kd [3] does the source give for B3 here?
Answer: 0.32 ± 0.04 nM

B4: 6-mer AAUAAA, FAM (ssRNA)
RNA: AAUAAA
modifications: 3' phosphate linking the FAM
Question: How did the Kd [3] turn out when B4 was run?
Answer: 8.05 ± 0.45 nM

B5: 17-mer AAUAAA PAS (ssRNA)
RNA: AACCUCCAAUAAACAAC
Question: Does B5 bind (Fip1)?
Answer: no binding

Question: And the Kd (CPSF-160;WDR33;CPSF-30)?
Answer: 0.25 ± 0.05 nM

Question: And the Kd [3]?
Answer: 0.28 ± 0.07 nM

Question: And the binding signal [4]?
Answer: 8 fold higher Kd than wild type

Question: And the binding signal [5]?
Answer: 90 fold higher Kd than wild type

Question: What about the binding signal [6] of the same binder?
Answer: 140 fold higher Kd than wild type

Question: What about the binding signal [7] of the same binder?
Answer: 17 fold higher Kd than wild type

Question: And the Kd [8]?
Answer: 0.19 ± 0.03 nM

Question: What about the binding signal [9] of the same binder?
Answer: 3 fold higher Kd than maximal binding
